Assay results as given in the supplement of paper PMC10567573.

B1: POLD4 (parent)
chain: ITDSYPVVKRREGPAGHSKGELAP
B2: MYOZ1 (parent)
chain: FSDSSMDHFQKFLPTVGGQLGTAG

Variants of: B1
Assay: protein stability index of a GFP-peptide fusion (GPS, HEK-293T) (PSI 1-6); higher = more stable
Settings: c terminus: a fixed tail appended
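Further: lentivirally expressed fusions sorted by FACS into six bins by GFP to DsRed ratio, PSI derived from sequencing read proportions per bin multiplied by bin number.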

Variant	protein stability index
D3F	3.39
D3S	2.68
D3M	3.2
D3H	2.97
D3I	1.09
D3C	1.78
D3N	2.68
D3W	1.99
D3G	4.07
D3K	3.89
D3L	2.46
D3T	4.2
D3Y	2.74
D3V	2
I1Q	4.43
I1F	1.59
I1C	4.11
I1H	3.73
I1V	4.4
I1M	2.72

Variant	protein stability index
I1S	5.09
I1T	4.79
I1G	4.68
I1P	3.23
I1Y	2.62
I1D	5.18
I1A	4.82
I1R	4.81
I1L	3.44
T2W	3.37
T2G	3.61
T2Y	4.27
T2P	3.71
T2M	3.78
T2A	2.43
T2D	4.35
T2L	4.98
T2S	3.69
T2I	4.58
T2F	4.27

Variant	protein stability index
T2V	3.36
T2H	4.41
Y5K	5.3
Y5H	5.39
Y5C	3.78
Y5I	4.84
Y5E	5.69
Y5D	5.56
S4P	4.58
S4T	2.56
S4E	4.58
S4H	2.67
S4N	4.16
S4D	5.06
S4R	3.87
S4Q	3.81
S4Y	2.57
S4I	3.51

Variants of: B2
Assay: as above
Settings: c terminus: a fixed tail appended

Variant	protein stability index
Q10N	2.42
Q10F	2.3
Q10Y	1.47
F1E	3.38
F1R	3.41
F1G	2.41
F1Y	2.83
G18T	2.55
G18M	2.49
D3A	1.96
D3S	1.97
D3H	1.88
D3I	1.89
D3V	1.96
S5M	1.82
S5F	2.22
S5D	2.58
S5E	2.91
G24S	1.98
G24A	1.71
G24V	2.42
G24Y	1.2

Variant	protein stability index
G24K	2.16
P14R	1.44
P14M	2.68
P14Q	2.38
P14F	2.83
P14C	1.41
P14L	4.1
H8P	2.36
H8D	2.49
H8Y	2.08
H8W	2.22
S2E	2.81
S2L	3.52
S2C	1.5
S2I	1.92
V16C	2.38
V16S	2.94
G17T	2.56
G17P	2.59
T22W	1.43
T22Q	2.36
T22I	2.57

Variant	protein stability index
T22L	3.17
T22D	2.86
F9P	4.38
F9V	3.71
F9H	2.57
F9I	2.46
F9R	2.6
F9K	3.09
F9G	4.56
M6E	3
M6A	2.65
M6T	2.58
M6P	2.56
M6Q	3
M6K	3.08
D7A	1.38
D7C	1.9
D7K	1.8
D7M	1.38
F12W	1.85
F12A	3.98
F12T	3.16

Variant	protein stability index
F12G	3.15
F12K	3.67
F12S	3.67
F12P	3.61
F12R	3.5
F12Q	3.04
F12M	3.11
T15L	1.9
T15S	2.93
T15G	2.46
K11I	2.12
K11R	2.12
K11F	2.07
K11Y	2.15
K11G	3.21
K11A	1.79
L20N	2.97
L20Y	2.27
L20E	3.51
L20I	2.69
L20C	1.66
L20S	3.71

Variant	protein stability index
L20T	2.53
A23N	2.68
A23G	2.77
A23F	2.49
A23E	2.92
Q19V	1.89
Q19K	2.33
Q19P	2.51
Q19E	3.12
G21H	2.14
G21F	1.62
G21V	1.75
G21I	1.76
G21L	2.71
S4I	3.59
S4C	1.43
S4N	2.32
S4V	3.14
L13F	3.09
L13I	1.9
L13R	2.92
